Literature values as cited in paper PMC5007751.
pKd: −log10 of the molar value.

Biological target: RNA helicase A distal portion of helicase domain (Homo sapiens) (UniProt Q08211)
Sequence of UniProt Q08211 (Q08211 630-1020): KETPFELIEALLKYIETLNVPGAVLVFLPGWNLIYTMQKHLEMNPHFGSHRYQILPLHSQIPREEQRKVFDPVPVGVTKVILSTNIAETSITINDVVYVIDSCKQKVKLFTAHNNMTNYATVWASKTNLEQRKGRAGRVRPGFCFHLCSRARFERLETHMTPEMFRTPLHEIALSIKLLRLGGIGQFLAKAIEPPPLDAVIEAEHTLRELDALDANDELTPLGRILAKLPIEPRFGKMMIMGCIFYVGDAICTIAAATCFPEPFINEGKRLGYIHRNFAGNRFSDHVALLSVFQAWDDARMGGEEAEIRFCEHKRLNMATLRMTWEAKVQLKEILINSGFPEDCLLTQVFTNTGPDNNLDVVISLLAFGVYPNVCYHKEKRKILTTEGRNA

- pKd: 5.02
Substance: EWS/FLI (from UniProt Q01844)
